# Assay results taken from the supplement of paper PMC10724198.
# ± gives the standard deviation of the averaged measurements.
# System: Saccharomyces cerevisiae
# Assay: protein stability index of tFT-peptide fusion (C-terminal peptide) (PSI (0-1 scale)); higher = more stable (slower turnover)
# Conditions: genetic background: cdc34-1; temperature: 37 C
# Description: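 MPS profiling in S. cerevisiae of the tFT-X12 degron library: putative degron peptides plus stable controls, 12 aa, fused to the C-terminus of a sfGFP-mCherry timer. Cells are FACS-sorted into 8 mCherry/sfGFP bins and deep-sequenced. PSI runs from 0 (unstable) to 1 (stable). Backgrounds are wild type, das1Δ and doa10Δ at 30 °C, and wild type, das1Δ, cdc34-1 and cdc53-1 at 37 °C; 2-3 technical replicates each.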
# 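Further: PSI is a weighted mean of sequencing reads over stability bins, variants kept only with over 10 reads, mCherry proximal and sfGFP distal, peptide attached via GGGS linker.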
row,Sequence,protein stability index
1,VSLIFCLFFLSC,0.424 ± 0.0047
2,VSTVCLDFSPFL,0.692 ± 0.065
3,VTSVARVVLHLL,0.526 ± 0.018
4,VVCPCIIYVPGV,0.619 ± 0.039
5,VVFLLGPLVCGG,0.5042 ± 0.0031
6,VVFVGRSIVVLT,0.508 ± 0.019
7,VVFWFPFVLRCC,0.0644 ± 0.019
8,VVFWWGHLLVSA,0.03535 ± 6.3e-05
9,VVLVVVWWGGVE,0.242 ± 0.051
10,VVMASSIIVVAG,0.0539 ± 0.0055
11,VVVLFGRLVVIC,0.48 ± 0.01
12,VVVYWGSLKRVC,0.5772 ± 0.0046
13,VWFCCLFFCFFV,0.432 ± 0.021
14,VWSWFVIYFFFC,0.358 ± 0.025
15,VYCTFLFAYTLP,0.556 ± 0.036
16,VYEVELSVRVTV,0.552 ± 0.03
17,VYVVLGTVYVTY,0.195 ± 0.014
18,WDPKISVFVLID,0.439 ± 0.056
19,WFAHGLRHFRIL,0.653 ± 0.081
20,WFFLFGFVFFFR,0.36 ± 0.059
21,WFGCSTVWVRVQ,0.286 ± 0.055
22,WFIPRSVCRWLF,0.515 ± 0.067
23,WFSAGSCRWVLC,0.58 ± 0.061
24,WGAHRVRVSRIL,0.686 ± 0.034

row,Sequence,protein stability index
1,WLCVFVFGIFFV,0.146 ± 0.016
2,WLFRCFLFVVGG,0.39 ± 0.025
3,WLLVVCRGLVFR,0.227 ± 0.0051
4,WQGWFLSLCIWV,0.2872 ± 0.0019
5,WQVPYQRLAILF,0.603 ± 0.021
6,WRCLHLVYLFFH,0.395 ± 0.016
7,WRVRFRLLAGFC,0.347 ± 0.038
8,WSFPFFLLPFLF,0.393 ± 0.0059
9,WSFYVVGRLLVN,0.33 ± 0.031
10,WSHVPLAPLSCF,0.43 ± 0.017
11,WSVCLLLLGRFC,0.523 ± 0.013
12,WTRAHWFFQFFV,0.334 ± 0.061
13,WVVVLFAYRGLR,0.57 ± 0.026
14,WYMYVRMASFLV,0.534 ± 0.058
15,YCDPSLIWLYLM,0.57 ± 0.012
16,YFICLSLVLFSY,0.163 ± 0.058
17,YIILLSRKCAFC,0.573 ± 0.017
18,YKLRAVFVCSVT,0.575 ± 0.06
19,YLYSSSPWILHG,0.673 ± 0.011
20,YTVRRVWLVRSR,0.445 ± 0.0056
21,YVGILCTGILTV,0.522 ± 0.024
22,YVSSCLLWLCFV,0.484 ± 0.043
23,YYVIFHLFSFLI,0.427 ± 0.025

# Same assay, conditions: genetic background: cdc53-1; temperature: 37 C
row,Sequence,protein stability index
1,VSLIFCLFFLSC,0.502 ± 0.044
2,VSTVCLDFSPFL,0.7662 ± 0.0043
3,VTSVARVVLHLL,0.681 ± 0.031
4,VVCPCIIYVPGV,0.643 ± 0.011
5,VVFLLGPLVCGG,0.514 ± 0.018
6,VVFVGRSIVVLT,0.525 ± 0.014
7,VVFWFPFVLRCC,0.0927 ± 0.0061
8,VVFWWGHLLVSA,0.0483 ± 0.016
9,VVLVVVWWGGVE,0.421 ± 0.074
10,VVMASSIIVVAG,0.0512 ± 0.027
11,VVVLFGRLVVIC,0.611 ± 0.019
12,VVVYWGSLKRVC,0.669 ± 0.012
13,VWFCCLFFCFFV,0.448 ± 0.0086
14,VWSWFVIYFFFC,0.388 ± 0.0079
15,VYCTFLFAYTLP,0.591 ± 0.032
16,VYEVELSVRVTV,0.56 ± 0.013
17,VYVVLGTVYVTY,0.325 ± 0.013
18,WDPKISVFVLID,0.53 ± 0.11
19,WFAHGLRHFRIL,0.76058 ± 0.00075
20,WFFLFGFVFFFR,0.4002 ± 0.0035
21,WFGCSTVWVRVQ,0.394 ± 0.0052
22,WFIPRSVCRWLF,0.684 ± 0.028
23,WFSAGSCRWVLC,0.71 ± 0.023
24,WGAHRVRVSRIL,0.768 ± 0.021

row,Sequence,protein stability index
1,WLCVFVFGIFFV,0.162 ± 0.01
2,WLFRCFLFVVGG,0.441 ± 0.013
3,WLLVVCRGLVFR,0.228 ± 0.024
4,WQGWFLSLCIWV,0.341 ± 0.0047
5,WQVPYQRLAILF,0.656 ± 0.017
6,WRCLHLVYLFFH,0.438 ± 0.036
7,WRVRFRLLAGFC,0.4126 ± 0.0035
8,WSFPFFLLPFLF,0.352 ± 0.0092
9,WSFYVVGRLLVN,0.383 ± 0.013
10,WSHVPLAPLSCF,0.442 ± 0.0048
11,WSVCLLLLGRFC,0.604 ± 0.011
12,WTRAHWFFQFFV,0.677 ± 0.051
13,WVVVLFAYRGLR,0.519 ± 0.12
14,WYMYVRMASFLV,0.634 ± 0.05
15,YCDPSLIWLYLM,0.714 ± 0.018
16,YFICLSLVLFSY,0.274 ± 0.05
17,YIILLSRKCAFC,0.65 ± 0.013
18,YKLRAVFVCSVT,0.6329 ± 0.0043
19,YLYSSSPWILHG,0.748 ± 0.035
20,YTVRRVWLVRSR,0.521 ± 0.029
21,YVGILCTGILTV,0.54 ± 0.045
22,YVSSCLLWLCFV,0.551 ± 0.018
23,YYVIFHLFSFLI,0.478 ± 0.0057

# Same assay, conditions: genetic background: das1 deletion; temperature: 30 C
row,Sequence,protein stability index
1,VSLIFCLFFLSC,0.402 ± 0.018
2,VSTVCLDFSPFL,0.65 ± 0.018
3,VTSVARVVLHLL,0.606 ± 0.027
4,VVCPCIIYVPGV,0.455 ± 0.014
5,VVFLLGPLVCGG,0.392 ± 0.021
6,VVFVGRSIVVLT,0.358 ± 0.038
7,VVFWFPFVLRCC,0.193 ± 0.03
8,VVFWWGHLLVSA,0.118 ± 0.031
9,VVLVVVWWGGVE,0.249 ± 0.034
10,VVMASSIIVVAG,0.11 ± 0.097
11,VVVLFGRLVVIC,0.448 ± 0.033
12,VVVYWGSLKRVC,0.584 ± 0.02
13,VWFCCLFFCFFV,0.378 ± 0.028
14,VWSWFVIYFFFC,0.335 ± 0.029
15,VYCTFLFAYTLP,0.443 ± 0.015
16,VYEVELSVRVTV,0.435 ± 0.026
17,VYVVLGTVYVTY,0.194 ± 0.025
18,WDPKISVFVLID,0.344 ± 0.024
19,WFAHGLRHFRIL,0.661 ± 0.0098
20,WFFLFGFVFFFR,0.352 ± 0.044
21,WFGCSTVWVRVQ,0.328 ± 0.037
22,WFIPRSVCRWLF,0.611 ± 0.023
23,WFSAGSCRWVLC,0.543 ± 0.012
24,WGAHRVRVSRIL,0.656 ± 0.028

row,Sequence,protein stability index
1,WLCVFVFGIFFV,0.179 ± 0.026
2,WLFRCFLFVVGG,0.371 ± 0.025
3,WLLVVCRGLVFR,0.25 ± 0.036
4,WQGWFLSLCIWV,0.3 ± 0.031
5,WQVPYQRLAILF,0.555 ± 0.03
6,WRCLHLVYLFFH,0.365 ± 0.048
7,WRVRFRLLAGFC,0.296 ± 0.021
8,WSFPFFLLPFLF,0.44 ± 0.022
9,WSFYVVGRLLVN,0.287 ± 0.024
10,WSHVPLAPLSCF,0.337 ± 0.023
11,WSVCLLLLGRFC,0.455 ± 0.026
12,WTRAHWFFQFFV,0.667 ± 0.018
13,WVVVLFAYRGLR,0.362 ± 0.031
14,WYMYVRMASFLV,0.489 ± 0.026
15,YCDPSLIWLYLM,0.61 ± 0.021
16,YFICLSLVLFSY,0.215 ± 0.024
17,YIILLSRKCAFC,0.51 ± 0.018
18,YKLRAVFVCSVT,0.507 ± 0.021
19,YLYSSSPWILHG,0.664 ± 0.015
20,YTVRRVWLVRSR,0.344 ± 0.032
21,YVGILCTGILTV,0.405 ± 0.026
22,YVSSCLLWLCFV,0.421 ± 0.023
23,YYVIFHLFSFLI,0.383 ± 0.033

# Same assay, conditions: genetic background: das1 deletion; temperature: 37 C
row,Sequence,protein stability index
1,VSLIFCLFFLSC,0.52 ± 0.0063
2,VSTVCLDFSPFL,0.781 ± 0.017
3,VTSVARVVLHLL,0.7016 ± 0.0041
4,VVCPCIIYVPGV,0.637 ± 0.011
5,VVFLLGPLVCGG,0.535 ± 0.0069
6,VVFVGRSIVVLT,0.567 ± 0.019
7,VVFWFPFVLRCC,0.2959 ± 0.0026
8,VVFWWGHLLVSA,0.113 ± 0.009
9,VVLVVVWWGGVE,0.4872 ± 0.0025
10,VVMASSIIVVAG,0.216 ± 0.0022
11,VVVLFGRLVVIC,0.598 ± 0.017
12,VVVYWGSLKRVC,0.7 ± 0.0057
13,VWFCCLFFCFFV,0.47 ± 0.011
14,VWSWFVIYFFFC,0.497 ± 0.013
15,VYCTFLFAYTLP,0.602 ± 0.0074
16,VYEVELSVRVTV,0.548 ± 0.0089
17,VYVVLGTVYVTY,0.381 ± 0.0087
18,WDPKISVFVLID,0.55 ± 0.025
19,WFAHGLRHFRIL,0.742 ± 0.027
20,WFFLFGFVFFFR,0.475 ± 0.019
21,WFGCSTVWVRVQ,0.502 ± 0.0075
22,WFIPRSVCRWLF,0.676 ± 0.033
23,WFSAGSCRWVLC,0.709 ± 0.013
24,WGAHRVRVSRIL,0.742 ± 0.0081

row,Sequence,protein stability index
1,WLCVFVFGIFFV,0.2894 ± 0.0021
2,WLFRCFLFVVGG,0.46 ± 0.0069
3,WLLVVCRGLVFR,0.4124 ± 0.0027
4,WQGWFLSLCIWV,0.404 ± 0.0047
5,WQVPYQRLAILF,0.681 ± 0.016
6,WRCLHLVYLFFH,0.531 ± 0.047
7,WRVRFRLLAGFC,0.421 ± 0.0046
8,WSFPFFLLPFLF,0.5103 ± 0.0048
9,WSFYVVGRLLVN,0.45 ± 0.014
10,WSHVPLAPLSCF,0.477 ± 0.0073
11,WSVCLLLLGRFC,0.617 ± 0.026
12,WTRAHWFFQFFV,0.739 ± 0.015
13,WVVVLFAYRGLR,0.57 ± 0.038
14,WYMYVRMASFLV,0.603 ± 0.018
15,YCDPSLIWLYLM,0.727 ± 0.0077
16,YFICLSLVLFSY,0.351 ± 0.032
17,YIILLSRKCAFC,0.645 ± 0.015
18,YKLRAVFVCSVT,0.6427 ± 0.0023
19,YLYSSSPWILHG,0.748 ± 0.033
20,YTVRRVWLVRSR,0.5005 ± 0.0038
21,YVGILCTGILTV,0.564 ± 0.0085
22,YVSSCLLWLCFV,0.5591 ± 0.0006
23,YYVIFHLFSFLI,0.533 ± 0.048

# Same assay, conditions: genetic background: doa10 deletion; temperature: 30 C
row,Sequence,protein stability index
1,VSLIFCLFFLSC,0.395 ± 0.024
2,VSTVCLDFSPFL,0.668 ± 0.0078
3,VTSVARVVLHLL,0.0931 ± 0.019
4,VVCPCIIYVPGV,0.455 ± 0.016
5,VVFLLGPLVCGG,0.375 ± 0.016
6,VVFVGRSIVVLT,0.336 ± 0.037
7,VVFWFPFVLRCC,0.0639 ± 0.0037
8,VVFWWGHLLVSA,0.0877 ± 0.021
9,VVLVVVWWGGVE,0.21 ± 0.003
10,VVMASSIIVVAG,0.105 ± 0.029
11,VVVLFGRLVVIC,0.327 ± 0.0075
12,VVVYWGSLKRVC,0.104 ± 0.0089
13,VWFCCLFFCFFV,0.4276 ± 0.0036
